Results on 6 sequences are retold here after the supplement of paper PMC5998384.

For series [1], the system named is HeLa Kyoto. Kind of series: solubility change mitosis vs G1/S (difference of NP-40 vs SDS log2 ratios) (log2 ratio difference); higher = more soluble in mitosis.
In series [2] the test system is HeLa Kyoto. In words: melting temperature (median over replicates), in situ; higher = more thermally stable.
For series [3], the system named is HeLa Kyoto. Kind of series: solubility in G1/S (NP-40 vs SDS abundance) (log2 ratio); higher = more soluble. Conditions: cell cycle stage: G1/S.
The test system of series [4] is HeLa Kyoto. In words: thermal stability score vs G1/S (z-score of summed log2 fold changes over temperatures); higher = more thermally stable than in G1/S.
Where [5] appears, read: cell cycle stage: early G1 (4.5 h after nocodazole release).
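Wherever melting temperature (median over replicates), in situ is given: HeLa Kyoto cells synchronized by double thymidine or nocodazole block, proteins quantified by TMT10plex mass spectrometry, three independent biological replicates.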
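Wherever solubility change mitosis vs G1/S (difference of NP-40 vs SDS log2 ratios) is given: synchronized HeLa Kyoto cells (double thymidine block for G1/S, nocodazole release for mitosis), protein amounts in NP-40 versus SDS lysates quantified by mass spectrometry, three biological replicates.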
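Wherever solubility in G1/S (NP-40 vs SDS abundance) is given: HeLa Kyoto cells arrested at G1/S by double thymidine block, proteins quantified by TMT10plex mass spectrometry in mild NP-40 versus SDS extracts, three biological replicates.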
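Wherever thermal stability score vs G1/S (z-score of summed log2 fold changes over temperatures) is given: synchronized HeLa Kyoto cells, proteins quantified by TMT10plex mass spectrometry, three biological replicates, mitosis taken 0.5 h after nocodazole release, G1/S directly after double thymidine block.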

With “MAGLSDLELRRELQALGFQPGPITDTTRDVYRNKLRRLRGEARLRDEERLREEARPRGEERLREEARLREDAPLRARPAAASPRAEPWLSQPASGSAYATPGAYGDIRPSAASWVGSRGLAYPARPAQLRRRASVRGSSEEDEDARTPDRATQGPGLAARRWWAASPAPARLPSSLLGPDPRPGLRATRAGPAGAARARPEVGRRLERWLSRLLLWASLGLLLVFLGILWVKMGKPSAPQEAEDNMKLLPVDCERKTDEFCQAKQKAALLELLHELYNFLAIQAGNFECGNPENLKSKCIPVMEAQEYIANVTSSSSAKFEAALTWILSSNKDVGIWLKGEDQSELVTTVDKVVCLESAHPRMGVGCRLSRALLTAVTNVLIFFWCLAFLWGLLILLKYRWRKLEEEEQAMYEMVKKIIDVVQDHYVDWEQDMERYPYVGILHVRDSLIPPQSRRRMKRVWDRAVEFLASNESRIQTESHRVAGEDMLVWRWTKPSSFSDSER [LEMD2]”, the “solubility change mitosis (log2)” value in series [1] is 0.776. In addition, the melting temperature in series [2] (cell cycle stage: G1/S) came out at 52.5 °C; in series [2] (cell cycle stage: mitosis), 51.1 °C. The “solubility in G1/S (log2)” value in series [3] is -0.759. Moreover, the thermal stability score in series [4] (setting [5]) was -1.63; in series [4] (cell cycle stage: mitosis), -1.98.

As to “MDKVCAVFGGSRGIGRAVAQLMARKGYRLAVIARNLEGAKAAAGDLGGDHLAFSCDVAKEHDVQNTFEELEKHLGRVNFLVNAAGINRDGLLVRTKTEDMVSQLHTNLLGSMLTCKAAMRTMIQQQGGSIVNVGSIVGLKGNSGQSVYSASKGGLVGFSRALAKEVARKKIRVNVVAPGFVHTDMTKDLKEEHLKKNIPLGRFGETIEVAHAVVFLLESPYITGHVLVVDGGLQLIL [CBR4]”, the “solubility change mitosis (log2)” value in series [1] was -0.0343. Also, the melting temperature is 54 °C in series [2] (cell cycle stage: G1/S) and 55.2 °C in series [2] (cell cycle stage: mitosis). Also, the “solubility in G1/S (log2)” value in series [3] turned out to be 0.0654. Moreover, the thermal stability score in series [4] (setting [5]) was 1.14; in series [4] (cell cycle stage: mitosis), -0.318.

As to “MWLEILLTSVLGFAIYWFISRDKEETLPLEDGWWGPGTRSAAREDDSIRPFKVETSDEEIHDLHQRIDKFRFTPPLEDSCFHYGFNSNYLKKVISYWRNEFDWKKQVEILNRYPHFKTKIEGLDIHFIHVKPPQLPAGHTPKPLLMVHGWPGSFYEFYKIIPLLTDPKNHGLSDEHVFEVICPSIPGYGFSEASSKKGFNSVATARIFYKLMLRLGFQEFYIQGGDWGSLICTNMAQLVPSHVKGLHLNMALVLSNFSTLTLLLGQRFGRFLGLTERDVELLYPVKEKVFYSLMRESGYMHIQCTKPDTVGSALNDSPVGLAAYILEKFSTWTNTEFRYLEDGGLERKFSLDDLLTNVMLYWTTGTIISSQRFYKENLGQGWMTQKHERMKVYVPTGFSAFPFELLHTPEKWVRFKYPKLISYSYMVRGGHFAAFEEPELLAQDIRKFLSVLERQ [EPHX1]”, the “solubility change mitosis (log2)” value in series [1] was -0.197. Also, the melting temperature in series [2] (cell cycle stage: G1/S) turned out to be 57.9 °C; in series [2] (cell cycle stage: mitosis) it was 58.1 °C. In addition, in series [3], the “solubility in G1/S (log2)” value is -0.336. In addition, the thermal stability score in series [4] (setting [5]) is -3.88; in series [4] (cell cycle stage: mitosis), -2.14.

As to “MAAAAWLQVLPVILLLLGAHPSPLSFFSAGPATVAAADRSKWHIPIPSGKNYFSFGKILFRNTTIFLKFDGEPCDLSLNITWYLKSADCYNEIYNFKAEEVELYLEKLKEKRGLSGKYQTSSKLFQNCSELFKTQTFSGDFMHRLPLLGEKQEAKENGTNLTFIGDKTAMHEPLQTWQDAPYIFIVHIGISSSKESSKENSLSNLFTMTVEVKGPYEYLTLEDYPLMIFFMVMCIVYVLFGVLWLAWSACYWRDLLRIQFWIGAVIFLGMLEKAVFYAEFQNIRYKGESVQGALILAELLSAVKRSLARTLVIIVSLGYGIVKPRLGVTLHKVVVAGALYLLFSGMEGVLRVTGAQTDLASLAFIPLAFLDTALCWWIFISLTQTMKLLKLRRNIVKLSLYRHFTNTLILAVAASIVFIIWTTMKFRIVTCQSDWRELWVDDAIWRLLFSMILFVIMVLWRPSANNQRFAFSPLSEEEEEDEQKEPMLKESFEGMKMRSTKQEPNGNSKVNKAQEDDLKWVEENVPSSVTDVALPALLDSDEERMITHFERSKME [TMEM87A]”, the “solubility change mitosis (log2)” value in series [1] is -0.117. For the same sequence, the melting temperature in series [2] (cell cycle stage: G1/S) came to 59 °C; in series [2] (cell cycle stage: mitosis) it was 60.5 °C. In addition, the “solubility in G1/S (log2)” value in series [3] was -0.0314. Further, the thermal stability score in series [4] (setting [5]) is -4.37; in series [4] (cell cycle stage: mitosis) it was -3.56.

Take “MAAPLRIQSDWAQALRKDEGEAWLSCHPPGKPSLYGSLTCQGIGLDGIPEVTASEGFTVNEINKKSIHISCPKENASSKFLAPYTTFSRIHTKSITCLDISSRGGLGVSSSTDGTMKIWQASNGELRRVLEGHVFDVNCCRFFPSGLVVLSGGMDAQLKIWSAEDASCVVTFKGHKGGILDTAIVDRGRNVVSASRDGTARLWDCGRSACLGVLADCGSSINGVAVGAADNSINLGSPEQMPSEREVGTEAKMLLLAREDKKLQCLGLQSRQLVFLFIGSDAFNCCTFLSGFLLLAGTQDGNIYQLDVRSPRAPVQVIHRSGAPVLSLLSVRDGFIASQGDGSCFIVQQDLDYVTELTGADCDPVYKVATWEKQIYTCCRDGLVRRYQLSDL [PAAF1]”: the “solubility change mitosis (log2)” value in series [1] is -0.218. Also, the melting temperature in series [2] (cell cycle stage: G1/S) was 54 °C; in series [2] (cell cycle stage: mitosis), 53.9 °C. Moreover, the “solubility in G1/S (log2)” value in series [3] was -0.094. The thermal stability score in series [4] (setting [5]) was -0.462; in series [4] (cell cycle stage: mitosis), -0.84.

Regarding “MQVTLKTLQQQTFKIDIDPEETVKALKEKIESEKGKDAFPVAGQKLIYAGKILNDDTALKEYKIDEKNFVVVMVTKPKAVSTPAPATTQQSAPASTTAVTSSTTTTVAQAPTPVPALAPTSTPASITPASATASSEPAPASAAKQEKPAEKPAETPVATSPTATDSTSGDSSRSNLFEDATSALVTGQSYENMVTEIMSMGYEREQVIAALRASFNNPDRAVEYLLMGIPGDRESQAVVDPPQAASTGAPQSSAVAAAAATTTATTTTTSSGGHPLEFLRNQPQFQQMRQIIQQNPSLLPALLQQIGRENPQLLQQISQHQEHFIQMLNEPVQEAGGQGGGGGGGSGGIAEAGSGHMNYIQVTPQEKEAIERLKALGFPEGLVIQAYFACEKNENLAANFLLQQNFDED [RAD23B]”, in series [1], the “solubility change mitosis (log2)” value was 0.104. Also, the values for the melting temperature in series [2] (cell cycle stage: G1/S) and in series [2] (cell cycle stage: mitosis) were 57 °C and 54.1 °C, respectively. Moreover, the “solubility in G1/S (log2)” value in series [3] stood at 0.0413. Besides, the figures for the thermal stability score in series [4] (setting [5]) and in series [4] (cell cycle stage: mitosis) were -2.19 and -2.38, respectively.
